The supplement of paper PMC6757056
± gives the standard deviation of the averaged measurements.

B1: library; a variant is named by its letters at N, in order (parent)
chain: GCUGUCACCGAGAAACUGUGAAGUAUAUCUUAAACCUGGGCACUUAAAAGAUAUAUGGAGUUAGUAGUGCAACCUGCUCGGUCUGAUGAGUCCNNNNNNGGACGAAACAGC

Assays:
[1] = variants of: B1; assay: normalized RNA/DNA level without ligand (relative to sTRSVctl = 100) (log10 (% of sTRSVctl)); HEK293T; ligand: cyclic di-GMP (c-di-GMP-II aptamer); higher = less ribozyme self-cleavage, higher mRNA level; conditions: reporter: mCherry (pCS4076), ligand present: no
In short: (§1)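 Ribozyme switch library plasmids linked to reporters were introduced into HEK293T cells at 4 µg per 6-well well, with ligand, if any, added 1 h before. Total RNA was extracted with EDTA 72 h later, reverse-transcribed, amplified, barcoded and sequenced. RNA level was computed from RNA over DNA reads relative to a spiked-in non-cleaving sequence or the top sequences, then scaled and log-transformed. The top set was 25 sequences, values were ×100 and log10, and the cutoff was ≥100 DNA reads.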

[2] = variants of: B1; assay: normalized RNA/DNA level with ligand (relative to sTRSVctl = 100) (log10 (% of sTRSVctl)); HEK293T; ligand: cyclic di-GMP (c-di-GMP-II aptamer); ligand concentration (+) RNA-Seq: 1 mM; higher = less ribozyme self-cleavage, higher mRNA level; conditions: reporter: mCherry (pCS4076), ligand present: yes
In short: as §1

Variant	normalized RNA/DNA level without ligand (log10) [1]	normalized RNA/DNA level with ligand (log10) [2]
AGAGCA	1.806 ± 0.017	1.87 ± 0.098
CGACUC	1.72 ± 0.03	1.86 ± 0.14
CGACUU	1.44 ± 0.089	1.63 ± 0.12
AGACCA	1.75 ± 0.031	1.88 ± 0.15
AGACCU	1.76 ± 0.057	1.895 ± 0.0095
AGACCC	1.79 ± 0.096	1.87 ± 0.18
AGAUUG	1.58 ± 0.049	1.77 ± 0.081
AGAUUC	1.7 ± 0.021	1.85 ± 0.093
AGAUUU	1.66 ± 0.052	1.81 ± 0.17
CGCGCA	1.65 ± 0.046	1.75 ± 0.13
CGCGCC	1.75 ± 0.025	1.88 ± 0.14
GGAUGC	1.7 ± 0.079	1.83 ± 0.067
UGACCU	1.72 ± 0.016	1.87 ± 0.087
UGACCA	1.7585 ± 0.0012	1.88 ± 0.074
UGACCC	1.798 ± 0.013	1.89 ± 0.087
UGAUAA	1.633 ± 0.011	1.8 ± 0.089
UGCCAU	1.694 ± 0.0071	1.81 ± 0.11
UGCCAG	1.7634 ± 0.0015	1.87 ± 0.087
UGCCAA	1.689 ± 0.0043	1.83 ± 0.12
UGCCAC	1.77 ± 0.056	1.88 ± 0.15
CGCCUG	1.74 ± 0.036	1.82 ± 0.1
AGACAU	1.62 ± 0.027	1.79 ± 0.12
UGCACC	1.74 ± 0.036	1.84 ± 0.14
UGCACG	1.801 ± 0.014	1.91 ± 0.14

Variant	normalized RNA/DNA level without ligand (log10) [1]	normalized RNA/DNA level with ligand (log10) [2]
UGCACA	1.76 ± 0.05	1.89 ± 0.12
UGCACU	1.74 ± 0.021	1.87 ± 0.094
UGAGCC	1.84 ± 0.02	1.91 ± 0.14
UGAGCU	1.76 ± 0.0029	1.87 ± 0.1
UGAGCA	1.84 ± 0.073	1.91 ± 0.11
UGAGCG	1.8 ± 0.12	1.86 ± 0.16
GGACCA	1.72 ± 0.021	1.81 ± 0.021
GGACCU	1.74 ± 0.07	1.85 ± 0.05
CGAUCA	1.6 ± 0.026	1.74 ± 0.12
CGAUCG	1.8 ± 0.04	1.87 ± 0.1
CGAUCC	1.82 ± 0.026	1.9 ± 0.088
CGAUCU	1.52 ± 0.053	1.7 ± 0.073
UGACGG	1.68 ± 0.039	1.82 ± 0.11
UGACGU	1.57 ± 0.12	1.74 ± 0.13
UGACGA	1.595 ± 0.015	1.78 ± 0.091
UGAUGC	1.754 ± 0.01	1.84 ± 0.09
UGAUGG	1.68 ± 0.081	1.83 ± 0.066
GGCAAC	1.72 ± 0.05	1.82 ± 0.1
GGCAAA	1.55 ± 0.074	1.65 ± 0.16
GGCAAU	1.65 ± 0.1	1.75 ± 0.13
GGCAAG	1.55 ± 0.019	1.74 ± 0.15
CGCAAG	1.77 ± 0.024	1.86 ± 0.088
CGCAAC	1.62 ± 0.05	1.78 ± 0.12
AGAUGG	1.55 ± 0.089	1.73 ± 0.082

Variant	normalized RNA/DNA level without ligand (log10) [1]	normalized RNA/DNA level with ligand (log10) [2]
AGAUGU	1.56 ± 0.036	1.77 ± 0.054
UGCCCA	1.88 ± 0.032	1.96 ± 0.096
UGCCCC	1.857 ± 0.013	1.93 ± 0.092
UGCCCU	1.79 ± 0.021	1.89 ± 0.057
CGAGAG	1.72 ± 0.022	1.84 ± 0.033
CGAGAC	1.643 ± 0.0051	1.77 ± 0.16
AGCCAU	1.718 ± 0.0054	1.8 ± 0.11
AGCCAC	1.7 ± 0.041	1.86 ± 0.087
AGCCAG	1.68 ± 0.077	1.79 ± 0.058
AGACUC	1.74 ± 0.054	1.83 ± 0.094
AGACUG	1.749 ± 0.013	1.84 ± 0.071
AGACUU	1.679 ± 0.0077	1.84 ± 0.13
AGCAGG	1.822 ± 0.018	1.85 ± 0.1
AGCAGU	1.689 ± 0.0032	1.84 ± 0.13
GGACGC	1.656 ± 0.0062	1.82 ± 0.1
AGAGGC	1.665 ± 0.0051	1.77 ± 0.13
AGAGGG	1.47 ± 0.098	1.62 ± 0.13
AGAGGU	1.57 ± 0.022	1.73 ± 0.077
AGACGG	1.62 ± 0.088	1.78 ± 0.089
GGAGUC	1.55 ± 0.046	1.79 ± 0.051
GGCGAA	1.558 ± 0.0061	1.77 ± 0.2
GGCGAC	1.76 ± 0.093	1.88 ± 0.16
GGCGAU	1.586 ± 0.014	1.72 ± 0.11
CGCCAG	1.76 ± 0.075	1.9 ± 0.072

Variant	normalized RNA/DNA level without ligand (log10) [1]	normalized RNA/DNA level with ligand (log10) [2]
UGACAU	1.62 ± 0.074	1.81 ± 0.075
GGCGCC	1.79 ± 0.041	1.84 ± 0.083
GGCGCA	1.86 ± 0.064	1.92 ± 0.023
AGCACA	1.58 ± 0.029	1.72 ± 0.12
AGAUAG	1.53 ± 0.11	1.71 ± 0.086
AGAUAC	1.64 ± 0.029	1.79 ± 0.12
AGAUAU	1.61 ± 0.046	1.78 ± 0.14
CGAGGU	1.72 ± 0.038	1.84 ± 0.096
CGAGGG	1.617 ± 0.014	1.76 ± 0.036
CGAGGA	1.54 ± 0.027	1.65 ± 0.084
CGAGGC	1.74 ± 0.027	1.85 ± 0.079
GGAGAC	1.72 ± 0.035	1.85 ± 0.059
AGAGAG	1.46 ± 0.09	1.64 ± 0.14
AGAGAC	1.56 ± 0.035	1.69 ± 0.088
AGAGAU	1.661 ± 0.0087	1.79 ± 0.11
UGCCGC	1.774 ± 0.015	1.9 ± 0.049
UGCCGU	1.66 ± 0.013	1.83 ± 0.12
UGCCGA	1.626 ± 0.012	1.79 ± 0.12
UGCCGG	1.75 ± 0.04	1.86 ± 0.039
CGCGAC	1.62 ± 0.041	1.8 ± 0.046
CGCGAA	1.23 ± 0.12	1.44 ± 0.11
CGCGAG	1.743 ± 0.0083	1.828 ± 0.012
CGCGAU	1.58 ± 0.05	1.79 ± 0.14
CGAGCC	1.824 ± 0.0092	1.88 ± 0.083

Variant	normalized RNA/DNA level without ligand (log10) [1]	normalized RNA/DNA level with ligand (log10) [2]
CGAGCU	1.82 ± 0.022	1.88 ± 0.077
CGAGCA	1.83 ± 0.067	1.89 ± 0.12
UGAGAA	1.6654 ± 7.7e-05	1.81 ± 0.1
UGAGAC	1.71 ± 0.022	1.8 ± 0.093
UGAGAU	1.608 ± 0.0039	1.78 ± 0.11
UGAGAG	1.6931 ± 0.00099	1.87 ± 0.098
CGACCA	1.667 ± 0.013	1.77 ± 0.12
CGACCC	1.753 ± 0.014	1.88 ± 0.1
CGACCU	1.54 ± 0.028	1.71 ± 0.09
GGCCUC	1.742 ± 0.015	1.83 ± 0.11
GGCCUA	1.61 ± 0.12	1.83 ± 0.13
GGCCUU	1.791 ± 0.013	1.9 ± 0.059
GGCCUG	1.82 ± 0.026	1.87 ± 0.19
CGCAGA	1.45 ± 0.08	1.68 ± 0.078
CGCAGC	1.75 ± 0.027	1.87 ± 0.074
CGCAGG	1.61 ± 0.034	1.84 ± 0.03
CGCAGU	1.679 ± 0.005	1.82 ± 0.092
UGCAAC	1.728 ± 0.0076	1.87 ± 0.099
UGCAAG	1.777 ± 0.0085	1.9 ± 0.088
UGCAAA	1.74 ± 0.0094	1.84 ± 0.1
